How the values were obtained:
Assay type in all cases: biochemical
[1] = GalNAc-T activity in absence and presence of LA, acceptor Glc; conditions: in the presence of LA
Procedure: Gal-T and GalNAc-T Enzyme Assays: The protein concentrations were measured using the Bio-Rad protein assay kit, based on the method of Bradford and further verified on SDS gel. […] The activities were measured using UDP-Gal or UDP-GalNAc as sugar nucleotide donors, and GlcNAc and Glc as the acceptor sugars. For the specific activity measurements, a 100-μl incubation mixture containing 50 mM β-benzyl-GlcNAc, 10 mM MnCl2, 10 mM Tris-HCl, pH 8.0, 500 μM UDP-Gal or UDP-GalNAc, 20 ng of Gal-T1, and 0.5 μCl of [^3H]UDP-Gal or [^3H]UDP-GalNAc was used for each Gal-T or GalNAc-T reaction. The incubation was carried out at 37° C. for 10 min. […] The column was washed successfully with 300, 400, and 500 μl of water, and the column flow-through was diluted with Biosafe scintillation fluid; radioactivity was measured with a Beckman counter. A reaction without the acceptor sugar was used as a control. […]

[2] = GalNAc-T specific activity assay; conditions: for UDP-GalNAc → GlcNAc GalNAc-T activity: donor 500 μM, acceptor β-benzyl-GlcNAc 25 mM
Procedure: (§1) For example, the galactose and N-acetylgalactosyltransferase activity of β(1,4)-galactosyltransferase I can be determined using the following assay conditions. […], 10 mM MnCl2, 10 mM Tris-HCl (pH 8.0), 500 μM UDP-Gal or UDP-GalNAc, and 20 ng of β(1,4)-galactosyltransferase I can be incubated at 37° C. for 10 minutes to promote coupling of a donor sugar to an acceptor sugar. While these conditions are provided as an example, it is understood that many other conditions may be used to chemically link a donor to an acceptor using the altered catalytic domains of the invention.
(§2) Gal-T and GalNAc-T Enzyme Assays: The protein concentrations were measured using the Bio-Rad protein assay kit, based on the method of Bradford and further verified on SDS gel. […] The activities were measured using UDP-Gal or UDP-GalNAc as sugar nucleotide donors, and GlcNAc and Glc as the acceptor sugars. For the specific activity measurements, […], 10 mM MnCl2, 10 mM Tris-HCl, pH 8.0, 500 μM UDP-Gal or UDP-GalNAc, 20 ng of Gal-T1, and 0.5 μCl of [^3H]UDP-Gal or [^3H]UDP-GalNAc was used for each Gal-T or GalNAc-T reaction. The incubation was carried out at 37° C. for 10 min. […] The column was washed successfully with 300, 400, and 500 μl of water, and the column flow-through was diluted with Biosafe scintillation fluid; radioactivity was measured with a Beckman counter. A reaction without the acceptor sugar was used as a control. A similar assay was carried out to measure the GalNAc-T activity with Glc and other acceptors in the presence of 50 μM bovine LA (Sigma).

[3] = Two-substrate kinetic constants, Gal-T reaction; conditions: UDP-galactose → GlcNAc
Excerpt: Studies for Determining the Kinetic Constants: The true Km of the donor (KA) and of the acceptor (KB), the dissociation constant of the donor, Ki(a), and kcat were obtained using two-substrate analyses and the primary plots of five concentrations of donor (UDP-Gal or UDP-GalNAc) and five concentrations of acceptor, and the corresponding secondary plots of the intercepts and slopes. Initial rate conditions were linear with respect to time. A suitable range of donor and acceptor concentrations were chosen, which allowed an accurate Michaelis-Menten plot to be derived. The data were also analyzed for a general two-substrate system using the following equations (Zhang et al., Glycobiology, 9:815-822 (1999)) with the software EnzFitter, a Biosoft nonlinear curve-fitting program for Windows.
[formula] Here v is the initial velocity and the rate equation for sequential symmetrical initial velocity pattern associated with Equation 1, an ordered or random equilibrium mechanism in which substrate A dissociates well from the E-S complex with a dissociation constant of Ki(a). Equation 2 is for asymmetric initial velocity pattern for a double displacement or “ping-pong” mechanism. The kinetic parameters KA, KB, Ki(a), and Vmax, were obtained from the fitted curves using the above rate equations. The graphical method and EnzFitter program gave very similar kinetic parameters. In the N-acetylgalactosamine transferase (GalNAc-T) assay, the maximum substrate concentrations used for UDP-GalNAc and GlcNAc were 1 and 200 mM, respectively. However, in the galactose transferase (Gal-T) assay, because of the limited solubility of GlcNAc in water, the concentration of GlcNAc was limited to no more than […] (which is 2-fold higher than its Km value), whereas up to 300 μM UDP-Gal were used.

[4] = GlcNAc-T specific activity assay; conditions: donor 500 μM; acceptor β-benzyl-GlcNAc 25 mM
[5] = Gal-T specific activity assay; conditions: donor 500 μM; acceptor β-benzyl-GlcNAc 25 mM (10 mM for C342T); saturating conditions
Procedure: as §1, §2

[6] = β4Gal-T1 enzyme assay of in vitro folded CD and SRCD proteins; conditions: condition I or VIII
Procedure: β4Gal-T1 Enzyme Assays: The in vitro assay for β4Gal-T1 enzyme activity was performed as described (Boeggeman et al., Glycobiology, 12:395-407 (2002)). The ^3H-labeled-UDP-Gal was used as sugar donor and GlcNAc as the sugar acceptor. A reaction without GlcNAc was used as a control.
Binding of recombinant proteins to UDP-affinity column: UDP-agarose was used to bind the active proteins at 4° C. Columns containing 1 ml bed volume of UDP-agarose were pre-equilibrated with 10 ml of 25 mM cacodylic buffer, pH 7.6, containing 25 mM MnCl2. The renatured protein solutions (0.5 mg) were adjusted to the pre-equilibration buffer conditions and applied to the columns. After loading the sample, the pass-through was re-cycled. It was then analyzed for the unbound protein by SDS-PAGE. The columns were washed 3× with 1-ml portions of equilibration buffer. The bound protein was eluted with the elution buffer consisting of 25 mM cacodylic buffer, pH 7.6, 25 mM EDTA and 1 M NaCl. Fractions of 0.5 ml were collected from the columns, and aliquots were analysed by SDS-PAGE. For enzymatic analysis the appropriate fractions were pooled and dialysed against 50 mM Tris-HCl pH 8.0 at 4° C. […]

B1: Y289N: bovine Gal-T1 catalytic domain, Tyr-289 exchanged with Asn (protein)
chain: SLTACPEESPLLVGPMLIEFNIPVDLKLIEQQNPKVKLGGRYTPMDCISPHKVAIIILFRNRQEHLKYWLYYLHPMVQRQQLDYGIYVINQAGESMFNRAKLLNVGFKEALKDYDYNCFVFSDVDLIPMNDHNTYRCFSQPRHISVAMDKFGFSLPYVQNFGGVSALSKQQFLSINGFPNNYWGWGGEDDDIYNRLAFRGMSVSRPNAVIGKTRMIRHSRDKKNEPNPQRFDRIAHTKETMLSDGLNSLTYMVLEVQRYPLYTKITVDIGTPS
acceptor preference of GalNAc transfer [1]: transfer GalNAc preferably to Glc rather than to GlcNAc
galactose transferase versus N-acetylgalactosyltransferase activity ([2]; comparison in words (Table III, FIG. 1)): equally strong galactose transferase and N-acetylgalactosyltransferase activities

B2: C342T: catalytic domain of bovine Gal-T1 (residues 130-402) with the C342T mutation (protein, UniProt P08037 130-402, looked up, variant C342T)
chain: SLTACPEESPLLVGPMLIEFNIPVDLKLVEQQNPKVKLGGRYTPMDCISPHKVAIIIPFRNRQEHLKYWLYYLHPILQRQQLDYGIYVINQAGESMFNRAKLLNVGFKEALKDYDYNCFVFSDVDLIPMNDHNTYRCFSQPRHISVAMDKFGFSLPYVQYFGGVSALSKQQFLSINGFPNNYWGWGGEDDDIYNRLAFRGMSVSRPNAVIGKTRMIRHSRDKKNEPNPQRFDRIAHTKETMLSDGLNSLTYMVLEVQRYPLYTKITVDIGTPS
modifications: catalytic domain
notes: catalytic domain of bovine Gal-T1 (residues 130-402) with the C342T mutation
KA (true Km of the donor), Gal-T [3]: 98 (6) μM
KB (true Km of the acceptor), Gal-T [3]: 11 (1) MM
Kcat., Gal-T ([3]; unit assumed): 14 s⁻¹
UDP-GalNAc → GlcNAc GalNAc-T activity [2]: 0.1 pmol/min/ng
UDP-GlcNAc → GlcNAc GlcNAc-T activity [4]: 0 pmol/min/ng
UDP-galactose → GlcNAc Gal-T activity [5]: 11.8 pmol/min/ng

B3: bovine CDβ4Gal-T1: catalytic domain (residues 130-402) of bovine β4Gal-T1 (protein, UniProt P08037 130-402, looked up, fragment)
chain: SLTACPEESPLLVGPMLIEFNIPVDLKLVEQQNPKVKLGGRYTPMDCISPHKVAIIIPFRNRQEHLKYWLYYLHPILQRQQLDYGIYVINQAGESMFNRAKLLNVGFKEALKDYDYNCFVFSDVDLIPMNDHNTYRCFSQPRHISVAMDKFGFSLPYVQYFGGVSALSKQQFLSINGFPNNYWGWGGEDDDIYNRLAFRGMSVSRPNAVIGKCRMIRHSRDKKNEPNPQRFDRIAHTKETMLSDGLNSLTYMVLEVQRYPLYTKITVDIGTPS
modifications: catalytic domain
notes: catalytic domain (residues 130-402) of bovine β4Gal-T1
specific activity before and after binding on UDP-agarose columns [6]: did not change

B4: Y289I_C342T: bovine Gal-T1 catalytic domain (residues 130-402), Tyr-289 exchanged with Ile, with Cys-342 to Thr mutation (protein)
chain: SLTACPEESPLLVGPMLIEFNIPVDLKLIEQQNPKVKLGGRYTPMDCISPHKVAIIILFRNRQEHLKYWLYYLHPMVQRQQLDYGIYVINQAGESMFNRAKLLNVGFKEALKDYDYNCFVFSDVDLIPMNDHNTYRCFSQPRHISVAMDKFGFSLPYVQIFGGVSALSKQQFLSINGFPNNYWGWGGEDDDIYNRLAFRGMSVSRPNAVIGKTRMIRHSRDKKNEPNPQRFDRIAHTKETMLSDGLNSLTYMVLEVQRYPLYTKITVDIGTPS
acceptor preference of GalNAc transfer [1]: transfer GalNAc preferably to Glc rather than to GlcNAc
affinity to UDP-GalNAc ([2]; FIG. 1, in words): slightly weaker affinity
specific N-acetylgalactosyltransferase activity relative to Y289L ([2]; at the substrate concentration used): half that of Y289L
UDP-GalNAc → GlcNAc GalNAc-T activity [2]: 14.7 pmol/min/ng
UDP-GlcNAc → GlcNAc GlcNAc-T activity [4]: 6.2 pmol/min/ng
UDP-galactose → GlcNAc Gal-T activity [5]: 8.8 pmol/min/ng
